Assay results taken from article PMC12728182 (2025).

What was measured:
[1] = target: T1, Human Rac1 (residues 1-177), GMPPNP-loaded (human, UniProt P63000 1-177); test: ITC; 15 °C
[2] = target: T1, Human Rac1 (residues 1-177), …; test: ITC; 10 °C, GMPPNP-loaded Rac1 (average)
[3] = target: T1, Human Rac1 (residues 1-177), …; test: ITC; 15 °C, GMPPNP-loaded Rac1 (average)
[4] = target: T1, Human Rac1 (residues 1-177), …; test: ITC; 35 °C, GMPPNP-loaded Rac1 (average)

Kd [1]: 21.6 µM
Kd [2]: 26.8 µM
Kd [3]: 20.2 µM
Kd [4]: 21.7 µM
B1: POSH_(315-380), shorter construct of human POSH comprising MRE1 and MRE2 (domain or fragment)
chain: GHMWSQASQNRHSMEISPPVLISSSNPTAAARISELSGLSCSAPSQVHISTTGLIVTPPPSSPVTTGPSF
